According to IntAct's records for PubMed 20498086:

B1: Nuclear pore complex protein Nup98-Nup96 (Homo sapiens), P52948 (parent)
chain: MFNKSFGTPFGGGTGGFGTTSTFGQNTGFGTTSGGAFGTSAFGSSNNTGGLFGNSQTKPGGLFGTSSFSQPATSTSTGFGFGTSTGTANTLFGTASTGTSLFSSQNNAFAQNKPTGFGNFGTSTSSGGLFGTTNTTSNPFGSTSGSLFGPSSFTAAPTGTTIKFNPPTGTDTMVKAGVSTNISTKHQCITAMKEYESKSLEELRLEDYQANRKGPQNQVGAGTTTGLFGSSPATSSATGLFSSSTTNSGFAYGQNKTAFGTSTTGFGTNPGGLFGQQNQQTTSLFSKPFGQATTTQNTGFSFGNTSTIGQPSTNTMGLFGVTQASQPGGLFGTATNTSTGTAFGTGTGLFGQTNTGFGAVGSTLFGNNKLTTFGSSTTSAPSFGTTSGGLFGNKPTLTLGTNTNTSNFGFGTNTSGNSIFGSKPAPGTLGTGLGAGFGTALGAGQASLFGNNQPKIGGPLGTGAFGAPGFNTTTATLGFGAPQAPVALTDPNASAAQQAVLQQHINSLTYSPFGDSPLFRNPMSDPKKKEERLKPTNPAAQKALTTPTHYKLTPRPATRVRPKALQTTGTAKSHLFDGLDDDEPSLANGAFMPKKSIKKLVLKNLNNSNLFSPVNRDSENLASPSEYPENGERFSFLSKPVDENHQQDGDEDSLVSHFYTNPIAKPIPQTPESAGNKHSNSNSVDDTIVALNMRAALRNGLEGSSEETSFHDESLQDDREEIENNSYHMHPAGIILTKVGYYTIPSMDDLAKITNEKGECIVSDFTIGRKGYGSIYFEGDVNLTNLNLDDIVHIRRKEVVVYLDDNQKPPVGEGLNRKAEVTLDGVWPTDKTSRCLIKSPDRLADINYEGRLEAVSRKQGAQFKEYRPETGSWVFKVSHFSKYGLQDSDEEEEEHPSKTSTKKLKTAPLPPASQTTPLQMALNGKPAPPPQSQSPEVEQLGRVVELDSDMVDITQEPVLDTMLEESMPEDQEPVSASTHIASSLGINPHVLQIMKASLLTDEEDVDMALDQRFSRLPSKADTSQEICSPRLPISASHSSKTRSLVGGLLQSKFTSGAFLSPSVSVQECRTPRAASLMNIPSTSSWSVPPPLTSVFTMPSPAPEVPLKTVGTRRQLGLVPREKSVTYGKGKLLMDMALFMGRSFRVGWGPNWTLANSGEQLNGSHELENHQIADSMEFGFLPNPVAVKPLTESPFKVHLEKLSLRQRKPDEDMKLYQTPLELKLKHSTVHVDELCPLIVPNLGVAVIHDYADWVKEASGDLPEAQIVKHWSLTWTLCEALWGHLKELDSQLNEPREYIQILERRRAFSRWLSCTATPQIEEEVSLTQKNSPVEAVFSYLTGKRISEACSLAQQSGDHRLALLLSQFVGSQSVRELLTMQLVDWHQLQADSFIQDERLRIFALLAGKPVWQLSEKKQINVCSQLDWKRSLAIHLWYLLPPTASISRALSMYEEAFQNTSDSDRYACSPLPSYLEGSGCVIAEEQNSQTPLRDVCFHLLKLYSDRHYDLNQLLEPRSITADPLDYRLSWHLWEVLRALNYTHLSAQCEGVLQASYAGQLESEGLWEWAIFVLLHIDNSGIREKAVRELLTRHCQLLETPESWAKETFLTQKLRVPAKWIHEAKAVRAHMESDKHLEALCLFKAEHWNRCHKLIIRHLASDAIINENYDYLKGFLEDLAPPERSSLIQDWETSGLVYLDYIRVIEMLRHIQQVDCSGNDLEQLHIKVTSLCSRIEQIQCYSAKDRLAQSDMAKRVANLLRVVLSLHHPPDRTSDSTPDPQRVPLRLLAPHIGRLPMPEDYAMDELRSLTQSYLRELAVGSL
partner: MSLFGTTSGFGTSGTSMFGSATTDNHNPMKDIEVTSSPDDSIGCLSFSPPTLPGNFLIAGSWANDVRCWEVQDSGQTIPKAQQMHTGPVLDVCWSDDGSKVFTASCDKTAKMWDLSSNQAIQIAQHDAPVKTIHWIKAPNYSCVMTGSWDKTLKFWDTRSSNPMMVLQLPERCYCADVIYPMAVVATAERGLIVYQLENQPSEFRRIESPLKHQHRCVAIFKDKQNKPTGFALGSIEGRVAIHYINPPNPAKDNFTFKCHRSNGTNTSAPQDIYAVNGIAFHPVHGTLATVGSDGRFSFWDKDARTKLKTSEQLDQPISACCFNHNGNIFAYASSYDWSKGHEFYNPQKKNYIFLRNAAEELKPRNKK

Variants of: B1
Conditions: with rae1l_human RAE1, P78406
E201K;E202K was tested, and the “effect of a mutation on the interaction” value was “disrupting interaction”.
